Measured values taken from article PMC4230323 (Biochemistry, 2014).
Where two headings read alike, the source gives them in different places.

Experiments:
[1] = format: biochemical; conditions: read-out: Km(ATP); 100 μM SPS
[2] = format: biochemical; conditions: read-out: Km(SPS); Src peptide substrate

B1: Lyn^SH2eng: Lyn Q509E/Q510E/Q511I three-domain construct with enhanced SH2 engagement (protein)
chain: QGDIVVALYPYDGIHPDDLSFKKGEKMKVLEEHGEWWKAKSLLTKKEGFIPSNYVAKLNTLETEEWFFKDITRKDAERQLLAPGNSAGAFLIRESETLKGSFSLSVRDFDPVHGDVIKHYKIRSLDNGGYYISPRITFPCISDMIKHYQKQADGLCRRLEKACISPKPQKPWDKDAWEIPRESIKLVKRLGAGQFGEVWMGYYNNSTKVAVKTLKPGTMSVQAFLEEANLMKTLQHDKLVRLYAVVTREEPIYIITEYMAKGSLLDFLKSDEGGKVLLPKLIDFSAQIAEGMAYIERKNYIHRDLRAANVLVSESLMCKIADFGLARVIEDNEYTAREGAKFPIKWTAPEAINFGCFTIKSDVWSFGILLYEIVTYGKIPYPGRTNADVMTALSQGYRMPRVENCPDELYDIMKMCWKEKAEERPTFDYLQSVLDDFYTATEGQYEEIP
modifications: left off: His tag, N-terminal, kept
Question: Which Km [1] does the source give for B1 here?
Answer: 54 ± 5 µM

Question: What about the Km [2] of the same molecule?
Answer: 60 ± 10 µM
